# Reference: US20240026407A1, “MODIFICATION OF SAPONINS” (GLAXOSMITHKLINE BIOLOGICALS SA, priority 2020, published 2024)
# B1: 222 (protein, listed as Marinomonas posidonica)
# chain: MTPKDILNALTVEEKARLCTGKDFWHLHGIERLELPSIMVTDGPHGLRKQSGEGDHVGLNASVKATCFPTASGLASSWNPALIEKMGVALGKECRAENVSVLLGPGINIKRNPLGGRNFEYFSEDPLIAGDMSTAWIKGVQSQDVGTSLKHYAVNNHEHCRMTVDAVVDQRTLREIYLPAFEKAIKQSQPWTVMCAYNKINGTYAAEHQQLLDDILVKEWGFEGIVVTDWGANNDRVEGIKHGQHLEMPSSGELNTQKILDAIDSGRLSIAALDKSVLRVLELIVKSQAALNNAPVNVDLERHHTLASKVAEESCVLLKNDQLLPAQKDQNVLVIGALANNTRYQGAGSSKINPFKLEQPLAQIEAVFGTNNVRYSQGYQLNDESDQTMIEDAVAQAEQADVIFLFAGLTPKYESEGFDRQHLNLPQVQLDLIDALGDQLGKTAVILQNGAPVTLPFVDKVPAILEAYLGGQAGASAIAKILAGDVNPSGKLAETFPLSLDDVPSQPYFPGTTKQTQYREAIWVGYRYFAHTAQPVLFPFGHGLTYSEFSFSELRIMDDKLDLKAVSFDEQTRIRLQVTVTNTGDRAGAEVVQCYLGQNKPSQPRPAKELRAYQKVFLEAGQSKCVELELNYRDFAFWCEADSQWRVESDDYHIQIGASVEDIRLTTLITLKTDTPLAPQNATLSAYFTPADRQFNDQSFSALLGKPIPDATPITPYTLNSTLGDIAQTEQGKPLFNAMLSVFSKMMEGDTNDSAAEADKLMAEAMVSDMPLRNLPVFNSQSYSEEALLALLADLNS
# B2: 234 (protein, listed as Sphingobium chlorophenolicum)
# chain: MTFPRSLFLASTILAFHCNPSFARNESPAKAIERADKTLKAMTPEEKTILTHGIMPLKILPNSPEPPAEAIPGAGYIKGIPRLGVPALYETDASLGVSYVFGLRKDGATALPSGLAQASTWNPALIEKAGRMIGAETRAKGFNVLLAGGVNLMRDPRNGRNFEYLGEDPLLAGTLVGHAIRGIQSNHIISTIKHFAFNGQETARKLVDSKISAANAHESDLLAFKIGIEIGDPGSVMCAYNKVNGHSACDNNWLLNTVLKHDWGYKGFVMSDWGAVPSLGAALNGLDQQSGEQLDTAVFFGDTLAAAAKSNPVYAKRLDDMNRRILWAIYNNGLDANPAKPGGVIDFKAHGDIAEQVARQGIVLLRNERGVLPLAASTKRIAVIGGYANSGVLSGAGSSQVQAEGGPAVYIPAGNGDENSSFIAESYHNSVPLKALRAAAPNAEITYRNGRYIAEAVAQAKKSDVAIVFATQWTSEGFDVPDMSLPNGQDALLAAVAAANPNTVVVLETGGPVMMPWLDSTAAVIEAWYPGARGAEAIAAVLTGKVNPSGKLPVTFPAHKDQLPRAEVDGMDSTEPSFLGMPDLKGQALVADYDIEGSNIGYRWNALKGNKALFPFGHGLSYTSFAASGLKTDGARASARITNTGKADGATIAQLYLVSRTGKPARRLVSFQRVELVAGQSKPLAMTIDPRLLGDWRDGNWTIVAGDYGFALGEDAEHLGPVTTVRLKGRTWRD
# B3: 354 (protein, listed as Chthonomonas calidirosea)
# chain: MGKTKRSLKVNRRDFFTLGAATLLAAISLPDGDLLAFAQKEREKDLVYGIRRERFEWAQKKAAALVAQMTREEKISQVGNNVPAIPRLGLPAYNYYSGEALHGLVRGGPVTSFPLPLALANTWNPELQYQVYTAVSDEARAYHNRDGVGLAYYSPQTINTAKDPRWGRIEETLGEDPHLMSLMAVQAVRGMQGDDPNYLKTVACAKHYIANETDNDRTAVSETVDPRSFWEYYVRPFYACVVDGKVFSVMGAYNAVNGIPCCADKNLLTGILRERWGFQGYVTSDCDAIYNIYDPHHYATSLAEACAMGIKAGCDLDCGDTYPRHLGEAFEQHLLEEADLDKAVTRLLTARFLFGDLDPEPRCPYNKIPFSVVDSPKHRALALEAARQSIVLLKNDGILPLDKTALKSVAVIGPTAAIAHLGGYSGAPFLRVSPLSGIAQALGIGIHFDEVYAYQAVRLEGGPQLESSVEQGGTDIGFIKNGSWVEFPATDFAGKNEIEVRVASDTQGGTIEIHLDRLNGPLLCTLQVPHTGGWQNWISLKAPINGVIGKHKLFFLFKGGDGYLLNVAWYRLNPPSPPETHNPNGIALTYQQGCTITGARNDTMFQKAVEAARQADVAIVVAGVNQEVDAEGHDRDDIRLTGAQHELIQAVYQANPKTILVLSTNAPVAVTWEQENLPAIVAAIFAGQAQGTAIADVLFGNYNPSGKLATTWYKSVEDLPDFHDFDITKRTYMYFEGEPLYPFGYGLSYTTFQIGNIQVSHPRLTSGGSITVSVDVTNIGKRAGTEVVQLYVRPPKSPVKRPNKQLVDFKRVELRPGETKRVELSLPYESPALWYWDVAQSKFVLQPGTVTLMVGNSSAHIAHTTTIELV
# B4: 380 (protein, listed as Ogataea parapolymorpha)
# chain: MSTFDVDDILSQLHVKEKVQLLSLKDFWHTANIDRLNIPSVRLSDGPNGVRGTKFFRSVPSACFSSGTALAATFNMPLLEQLGKLMAEEARHKGAHVILGPTCNIARGPLGGRGFESFSEDPYLSGIAAAAIIKGIESQGIGATLKHFVCNDLEDERNSIDVILSDRALREIYLLPFQIAIKEANPKCVMSSYNKVMGEHVSQSKKLLTDILRKEWGWDGLTMSDWFGVYSIKSSLDAGLDLECPGYPLMRKHDALIHAISSREINMDVIDIRVRNILKLVQHALKSSIPQNAPEDSENNTPETSALLRKAASEAIVLLKNESSILPLKPSDEIAVIGPNARIPRMYGGGSASVNCYYGISVYDGISNKIGSQPPYSMGCDIARNMFDLGKLASYKGEPGVRIKVYKEAPGTPDRSLIEEFRYDSLQLLLFDYNHEKLDSSLFYFDIEGEFTSDKDMSYDIHLSCLGTALLYINGELFIDDKTNQKMGFAAIGASSLGDTKTIHMKKDERIEFKIEFGSAPTFTLETLDLVASNGGGSLTVAIGEKITDQNRINDAVELAKTADKVILCVGTSSDWESEGFDRPHMDLPKSQGILIEEILKVNKNIILVNLSGTPVTLPWIDEIPAVVHGWFNGMESGNAMADVLYGDVNASGKLSLSWPKRCEDNPSFLNFKSDKGKVVYGEDVFVGYRYYEKVCREPLFAFGYGLSYTAFNFDGLDVKVAADNLVCTLNIKNIGKLRGAEVVQLYVIPPLTTTTVSRPLKEFKGCQKVFLEPGQKITTTISVPIKYACSYFDVERQKWSIESGEYGVFIGNSSDAMDALIGKFVIQKPLLWSGL
# B5: 350 (protein)
# chain: MIDDILDKMTLEEQVSLLSGADFWTTVAIERLGVPKIKVTDGPNGARGGGSLVGGVKSACFPVAIALGATWDPELIERAGVALGGQAKSKGASVLLAPTVNIHRSGLNGRNFECYSEDPALTAACAVAYINGVQSQGVAATIKHFVANESEIERQTMSSDVDERTLREIYLPPFEEAVKKAGVKAVMSSYNKLNGTYTSENPWLLTKVLREEWGFDGVVMSDWFGSHSTAETINAGLDLEMPGPWRDRGEKLVAAVREGKVKAETVRASARRILLLLERVGAFEKAPDLAEHALDLPEDRALIRQLGAEGAVLLKNDGVLPLAKSSFDQIAVIGPNAASARVMGGGSARIAAHYTVSPLEGIRAALSNANSLRHAVGCNNNRLIDVFSGEMTVEYFKGRGFESRPVHVETVEKGEFFWFDLPSGDLDLADFSARMTATFVPQETGEHIFGMTNAGLARLFVDGELVVDGYDGWTKGENFFGTANSEQRRAVTLGAARRYRVVVEYEAPKASLDGINICALRFGVEKPLGDAGIAEAVETARKSDIVLLLVGREGEWDTEGLDLPDMRLPGRQEELIEAVAETNPNVVVVLQTGGPIEMPWLGKVRAVLQMWYPGQELGNALADVLFGDVEPAGRLPQTFPKALTDNSAITDDPSIYPGQDGHVRYAEGIFVGYRHHDTREIEPLFPFGFGLGYTRFTWGAPQLSGTEMGADGLTVTVDVTNIGDRAGSDVVQLYVHSPNARVERPFKELRAFAKLKLAPGATGTAVLKIAPRDLAYFDVEAGRFRADAGKYELIVAASAIDIRASVSIHLPVDHVMEP
# modifications: Rhizobium radiobacter
# B6: 339 (protein, listed as Koribacter versatilis)
# chain: MKISRVFLATTLALSMFGSAQRPDPRAELMKKPWMDKNKSADERAELVLKEMTVDEKINLIHGQGMEEMAEFGIPMPNKALGNGGAGFVLGVERLGIPLIQMSDAAYGVRSSAKNGRYSTALPSNLGSAASWDPQAACEYGALIGRELRAQGYNMTLGGGVNITREPRNGRTFEYMGEDPILAGTLVGNRIKCEQAQHVIGDTKHYAVNDQESGRTEVDVVISKRAMRETDLLAFEIGIEIGQPGAVMCSYNLVNGTYACQNKYLLTDVLKKDWNFKGFVVSDWGATHSTIESSAAGLDNEQPFGIFYSDKFKAGLDSGKIPMSELDDHVRRILRTEFASGIVDNPVVKAVVDVEAGLETARKIEEGSIVLLKNGNNILPLDKDSIKSVAIIGEKADFGMISGGGSAQVDPPGPSHEWQAHVWFPTSPLKAVQAKLPNAKVDWRSGSDKSKAAALAKQSDIAIVFVHQWISEGMDLPDLTLPFGQDELIERVAAANPRTIVVLESGTAVTMPWLDKVSGVVEAWYGGSKGADAVANILFGDVNPSGKLPMTFPRSVEDVPHPKLAVPPPNPNPMETYMHPELAKATVTATYDEGVKVGYKWYDAEKKPVLFPFGFGLSYTTYQYSGLKVSSGKTTTVSFTVKNTGKRGGDEIAQVYASLPAEAQEPPKRLVGFTKVHLNAGESKEVSVTVPAKYLSVFDEASNGWKLVPGSYSFMVGGSSQDLPQKQSATF
# Assay: Experiment 4-1: screening of glucosidases for deglycosylation with purified QS-18 (0.04 mg/ml) at pH 7.5 and room temperature
# Format: biochemical, Quillaja saponaria
# Settings: pH 7.5, room temperature, 20 h, clarified E. coli lysate, QS-18 2150 to QS-21 1988 by LCMS/MS
# Method in brief: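 Candidate glucosidases expressed in E. coli BL21(DE3) (pET24b+, autoinduction, 20 °C for 20 h); clarified lysates in 100 mM potassium phosphate pH 7.5 incubated with QS-18 (0.04 mg/ml final) 20 h at room temperature. Quenched with MeCN, analysed by LC-MS/MS for % conversion; hits >3 S.D. above negative control.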
row,Molecule,Expt 4-1 % conv
1,B1,1.6%
2,B2,2.5%
3,B3,1.6%
4,B4,2.4%
5,B5,2.6%
6,B6,1.4%

# Assay: Experiment 4-2: screening of glucosidases for deglycosylation with purified QS-18 (1 mg/ml) at pH 6 and 30 deg C
# Format: biochemical, Quillaja saponaria
# Settings: pH 6, 30 degC, 18 hrs, clarified lysate, LCMS/MS
# Method in brief: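 Clarified lysates of glucosidase-expressing cells in 100 mM potassium phosphate pH 6 were incubated 18 h at 30 °C with QS-18 at 1 mg/ml final. Reactions quenched with MeCN; deglycosylation activity determined by LC-MS/MS.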
row,Molecule,Expt 4-2 % conv
1,B1,0.4%
2,B2,0.7%
3,B3,0.5%
4,B4,0.5%
5,B5,0.7%
6,B6,0.5%

# Assay: Experiment 4-4: screening of glucosidases for deglycosylation of QS-18 in crude bark extract (1 in 20 dilution) to QS-21
# Format: biochemical, Quillaja saponaria
# Settings: CBE 1 in 20 dilution, pH 6, 25 degC, 18 hours; % conversion of Middle Peak by UV HPLC
# Description: Lysates were prepared as in Experiment 4-2.
# Crude bark extract (CBE) was adjusted to pH 6 by dropwise addition of 2M NaOH with stirring. 25 uL of clarified lysate was transferred to a reaction plate, 22.5 ul of 100 mM potassium phosphate buffer pH 6 was added, 2.5 ul CBE at pH 6 was added. Reaction plates were sealed, incubated at 25 degC with shaking for 18 hours, then quenched by addition of 50 uL acetonitrile (MeCN). Quenched reaction plates were re-sealed and incubated at 20 degC with shaking for 10 min. The reaction plates were centrifuged (10 min, 4 degC) and analysed by UV HPLC with the method below:
# Three key peaks of interest are apparent using this chromatography: Left Peak (retention time approximately 2.30-2.35 min) comprising mainly QS-17 family components; Middle Peak (retention time approximately 2.37-2.42 min) comprising mainly QS-18 family components and desglucosyl-QS-17 family components; and Right Peak (retention time approximately 2.44-2.50 min) comprising mainly QS-21 family components. Peak identity was supported by MS/MS.
# Enzyme activity is calculated as the % conversion of the Middle Peak present in the crude bark extract: […]
row,Molecule,Expt 4-4 % conv
1,B1,<3%
2,B2,<3%
3,B3,<3%
4,B4,<3%
5,B5,<3%
6,B6,<3%
